Reference: patent WO2018183494A1 (dated 2018)

Molecular target: T1, CD19 (UniProt P15391 20-556, limits assumed)
T1 sequence (looked up): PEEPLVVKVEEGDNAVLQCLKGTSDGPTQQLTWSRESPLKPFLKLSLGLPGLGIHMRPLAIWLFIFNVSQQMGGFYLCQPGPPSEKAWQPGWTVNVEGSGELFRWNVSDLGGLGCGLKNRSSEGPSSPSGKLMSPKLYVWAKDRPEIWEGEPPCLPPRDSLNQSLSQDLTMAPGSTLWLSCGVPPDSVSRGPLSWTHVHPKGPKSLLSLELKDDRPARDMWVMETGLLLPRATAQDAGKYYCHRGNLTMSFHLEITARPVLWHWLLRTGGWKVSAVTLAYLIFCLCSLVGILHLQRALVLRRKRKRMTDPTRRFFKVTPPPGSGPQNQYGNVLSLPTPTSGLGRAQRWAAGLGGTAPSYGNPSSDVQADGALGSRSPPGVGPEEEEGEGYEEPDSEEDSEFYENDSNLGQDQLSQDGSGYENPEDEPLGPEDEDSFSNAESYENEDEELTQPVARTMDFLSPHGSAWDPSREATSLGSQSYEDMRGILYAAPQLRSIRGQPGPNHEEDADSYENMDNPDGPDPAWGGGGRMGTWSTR
Assay: cell-based or functional assay

B1: huB4-DGN462 (antibody, V domains shown)
VH: QVQLVQPGAEVVKPGASVKLSCKTSGYTFTSNWMHWVKQAPGQGLEWIGEIDPSDSYTNYNQNFQGKAKLTVDKSTSTAYMEVSSLRSDDTAVYYCARGSNPYYYAMDYWGQGTSVTVSS
VL: EIVLTQSPAIMSASPGERVTMTCSASSGVNYMHWYQQKPGTSPRRWIYDTSKLASGVPARFSGSGSGTDYSLTISSMEPEDAATYYCHQRGSYTFGGGTKLEIKR
With B1 the “median IC50 of cytotoxic activity (MTT assay, 72 h) in B cell lymphoma cell lines” value was 0.1 nM and the “median IC50 of cytotoxic activity (MTT assay, 72 h) in eight T cell-derived lymphomas with lower CD19 expression” value was 1.75 nM.
